The data set relates to Saccharomyces cerevisiae PS128 hsf1 delta, HSF1(1-493) fusion. As to the kind of experiment: growth estimate (transactivation domain function in HSF1 fusion, heat-shock survival) (a.u. (slope of normalised read count over time)); higher = stronger growth at 37°C, i.e. more transactivation activity. As to conditions: library: design library. The essentials: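 Transactivation-domain oligos were designed and fused to a truncated yeast HSF1 (amino acids 1–493), then expressed in a yeast strain lacking hsf1. Replica plating onto –trp 5-FOA plates was followed by incubation at 30°C or 37°C for 0, 2, 4, 6 and 8 days. Inserts were amplified by PCR and sequenced on an Illumina MiSeq as six barcoded replicates from a single experiment. The growth estimate is the slope of a robust linear fit over time of read counts normalised to sample totals and to starting count.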
DFDLDMLGDFDGDMLG: the growth estimate was 4.69.
The value for RFNDLLDLDFILSN was -0.133; that for DFDLDMLGDFDLDPLG was 9.65.
The value for EDDDERSLWDSML was < -0.25; that for LFDYDFLFGNDFG was 0.038; that for EFNDLLDLDFIPSN was 0.874.
The value for AFNDLLDLDFILSN was 0.948.
QQAGEIAQLWDFN: the growth estimate is < -0.25.
The value for EDDDEFSLWDSAL was < -0.25; that for TMDDVYKYLFDD was 0.872; that for DELSPIIELLEKDG was -0.237.
MLSSHGFSVGTSALLDLFSP: the growth estimate is -0.248.
The value for TMDDVYNYLADD was 0.274; that for LFDYDFLFGNDGA was 0.693; that for DELSWIIELLEKPG was 0.0373.
For DELSWIIELLEKDA the value was 2.02; for LFDYDFLFGNDPA, 0.915; for TMDDVYNYLFGD, 1.05.
For RDLYSILWSDVY the value was -0.248; for EDRDEFSLWDSML, 0.0908.
In the case of DELSWIIEALEKDG, the growth estimate was 0.0037.
The value for GELSWIIELLEKDG was -0.152; that for LADYDFLFGNDFA was 2.67.
The value for MPSSHGFSVDTSALLDLFSP was 0.171; that for QQNGEIAQLWDFN was -0.146; that for DFDLDMRGDFDLDMLG was 1.6.
For DELSWIIELLGKDG the value was -0.173; for QQNGEIAPLWDFN, < -0.25; for MLSSHGFSVDTSALLDKFSP, -0.227.
EFGDLLDLDFILSN: the growth estimate was 0.032.
For DFDLGMLGDFDLDMLG the value was 12.4.
For EANDLLDLDFILSN the value was 0.0838.
Consider PAPDTQDDFLKWWRSEEAQ, for which the growth estimate is 0.0134.
For DLDESWDYIFETTG the value was 2.74; for KQNGEIAQLWDFN, < -0.25; for MLSSHGRSVDTSALLDLFSP, -0.248.
For PEFPAIELQELQELQALLQQ the value was -0.181; for MLSSHAFSVDTSALLDLFSP, -0.157.
For PEFPGIELQELQERQALLQQ the value was < -0.25; for DFDLDMLGDGDLDMLG, -0.147; for EDLYSPLWSDVY, < -0.25.
In the case of EDDDEFSLWDSPL, the growth estimate was 0.011.
As for MLSSHGFSVDTSALLDLFPP, the growth estimate is -0.106.
The value for DLDESWDYAFETTE was < -0.25.
The value for DFDLDPLGDFDLDMLG was 2.12; that for MLSSHGFSVDTSAGLDLFSP was -0.207; that for MLSSHGFSVDTSALLDRFSP was -0.229.
The value for PEFPGIEPQELQELQALLQQ was 0.114; that for DFDLDGLGDFDLDMLG was 2.75.
With DELSGIIELLEKDG, the growth estimate was -0.238.
For QQNGEIAQRWDFN the value was < -0.25; for QQNGEGAQLWDFN, < -0.25; for DELSWIIELLEGDG, 2.77.
In the case of MLSSHGFSVDTGALLDLFSP, the growth estimate is -0.207.
The value for RMDDVYNYLFDD was -0.0132; that for EDDDEFSLWDSKL was < -0.25; that for MLSSHGFSVDTSALLDLFKP was -0.179.
The value for MLSSHGFSVDTSALADLFSP was -0.191; that for PFPDTQDDFLKWWRSEEGQ was 0.109.
The value for DELSWKIELLEKDG was < -0.25; that for EDDDEFSAWDSML was -0.0271.
As for GLSSHGFSVDTSALLDLFSP, the growth estimate was 0.18.
The value for PFPDTQDDRLKWWRSEEAQ was -0.109; that for EDDDEFSLWKSML was < -0.25.
For TMGDVYNYLFDD the value was 0.113.
For EDLYGILWSDVY the value was 0.0695; for VADDIWEELKSEDL, -0.188; for DFDLDMLRDFDLDMLG, 11.1.
For MLSSHGFSVDTSALLDPFSP, the growth estimate is < -0.25.
For VADDIWEELLSRDL the value was 6.53.
For LFDKDFLFGNDFA, the growth estimate is -0.177.
For EFKDLLDLDFILSN the value was 0.512.
For PEFPGIELKELQELQALLQQ the value was -0.217; for MLSSHGFSVDTSALLPLFSP, -0.158; for EDDDEFGLWDSML, 0.402.
For PEFPGKELQELQELQALLQQ the value was < -0.25.
Consider VADDIWEKLLSEDL, for which the growth estimate was 2.03.
The value for PEFPGIELQELQELQALLRQ was -0.245.
The value for DELSWIIELLERDG was 1.05; that for DELSWPIELLEKDG was 0.046.
In the case of LFDYDFLFGNRFA, the growth estimate is -0.205.
The value for LFDYDKLFGNDFA was -0.159; that for EFNDRLDLDFILSN was -0.246.
For PFPDTQDAFLKWWRSEEAQ the value was 0.5; for EDLYSALWSDVY, 0.125; for DFDLDRLGDFDLDMLG, 4.07.
The value for PFNDLLDLDFILSN was 0.542.

(Values after the supplement of paper PMC5949888.)
